Experimental data from publication PMC4970707.

B1: Spo0F from B. thuringiensis (6His-Spo0F) (natural protein)
chain: MEGKILIVDDQYGIRVLLHEVFQKEGYQTFQAANGFQALDIVKKDNPDLVVLDMKIPGMDGIEIFKACKEIDESIKVILMSAYGELDMIQEAKDLGALMHFAKPFDIDEIRQAVRNELAVEA

Tests used:
[1] = target: NprR(ΔHTH)(Y223A/F225A) (Bacillus thuringiensis (strain 407)); assay: crystal structure; NprR(ΔHTH)(Y223A/F225A) alone, crystallized at 18°C in 1.0 M Na citrate, 0.1 M Hepes pH 7.6; 3.25 Å, space group P 21 21 21, 2 molecules per asymmetric unit
[2] = target: NprR from B. thuringiensis strain 407 (NprR-6His) (Bacillus thuringiensis (strain 407)); assay: MST; 33 nM NprR labelled with NT-495-NHS; Bt Spo0F serially diluted from about 260 μM to 8 nM; 5% glycerol in MST buffer (50 mM Tris-HCl pH 7.4, 150 mM NaCl, 10 mM MgCl2, 0.05% Tween-20); 20% LED power, 40% IR-laser power; absence of NprX; apparent Kd

| Molecule | stoichiometry N [1] | Kd [2] |
| --- | --- | --- |
| NprR(ΔHTH)(Y223A/F225A) (domain or fragment) | 2 |  |
| B1 |  | 5 µM |
